The record followed here is patent US20150196666A1.

The target in assay [1] is CD22 (human) (UniProt P20273). The assay is described as follows: flow cytometry, unconjugated antibody + FITC goat anti-human IgG, Ramos cells; background in parentheses. A general note: In flow cytometry, cells or beads pass a laser one at a time.
Assay [2] addresses CD22 (human) (UniProt P20273). The assay is described as follows: flow cytometry, unconjugated antibody + FITC goat anti-human IgG, Raji cells; background in parentheses.
For assay [3], the target named is CD22 (human) (UniProt P20273). The assay is described as follows: flow cytometry, unconjugated antibody + FITC goat anti-human IgG, Jeko-1 cells; background in parentheses.
For assay [4], the target named is CD22 (human) (UniProt P20273). The assay is described as follows: flow cytometry, unconjugated antibody + FITC goat anti-human IgG, REH cells; background in parentheses.
For assay [5], the target named is CD22 (human) (UniProt P20273). The assay is described as follows: flow cytometry, unconjugated antibody + FITC goat anti-human IgG, Daudi cells; background in parentheses.
In assay [6] the target is CD22 (human) (UniProt P20273). As to the kind of experiment: flow cytometry, unconjugated antibody + FITC goat anti-human IgG, RS4;11 cells; background in parentheses.
Assay [7] has as its target CD22 (human) (UniProt P20273). The assay is described as follows: flow cytometry, unconjugated antibody + FITC goat anti-human IgG, 697 cells; background in parentheses.
For assay [8], the target named is CD22 (human) (UniProt P20273). The assay is described as follows: flow cytometry, unconjugated antibody + FITC goat anti-human IgG, MN-60 cells; background in parentheses.
The target in assay [9] is CD22 (human) (UniProt P20273). As to the kind of experiment: flow cytometry, unconjugated antibody + FITC goat anti-human IgG, WSU-FSCCL cells; background in parentheses.
The target in assay [10] is human trophoblast cell-surface antigen (TROP-2) (human) (UniProt P09758). As to the kind of experiment: cell binding assay on TROP-2-expressing cells.
For assay [11] the target is unchanged. The assay is described as follows: flow cytometry, surface binding on Capan-1 cells.
Assay [12] shares this target. The assay is described as follows: flow cytometry, surface, NCI-N87 cells.
Assay [13] concerns the target CD74 (invariant chain, Ii) (human) (UniProt P04233). As to the kind of experiment: flow cytometry, membrane-only CD74, Raji cells.
For assay [14] the target is unchanged. The assay is described as follows: flow cytometry, permeabilized A-375 cells; background in parentheses.
The target is the same in assay [15]. As to the kind of experiment: flow cytometry, permeabilized NCI-N87 cells; background in parentheses.
The target is the same in assay [16]. The assay is described as follows: flow cytometry, membrane-only CD74, HuH-7 cells.
Assay [17] shares this target. The assay is described as follows: flow cytometry, membrane-only CD74, Capan-1 cells.
The target is the same in assay [18]. The assay is described as follows: flow cytometry, membrane-only CD74, HuH-7 cells; background (GAH-FITC only) in parentheses.
The target is the same in assay [19]. As to the kind of experiment: flow cytometry, permeabilized Capan-1 cells.
Assay [20] has the same target. As to the kind of experiment: flow cytometry, membrane-only CD74, Capan-1 cells; background (GAH-FITC only) in parentheses.
For assay [21] the target is unchanged. The assay is described as follows: flow cytometry, membrane-only CD74, Hs746T cells.
Assay [22] has the same target. The assay is described as follows: flow cytometry, permeabilized Raji cells.
The target is the same in assay [23]. As to the kind of experiment: flow cytometry, permeabilized Hs746T cells; background in parentheses.
For assay [24] the target is unchanged. The assay is described as follows: flow cytometry, permeabilized Raji cells; background in parentheses.
For assay [25] the target is unchanged. The assay is described as follows: flow cytometry, permeabilized HuH-7 cells; background in parentheses.
For assay [26] the target is unchanged. The assay is described as follows: flow cytometry, membrane-only CD74, Hs746T cells; background (GAH-FITC only) in parentheses.
The target is the same in assay [27]. The assay is described as follows: flow cytometry, permeabilized A-375 cells.
Assay [28] shares this target. The assay is described as follows: flow cytometry, membrane-only CD74, Raji cells; background (GAH-FITC only) in parentheses.
The target is the same in assay [29]. The assay is described as follows: flow cytometry, membrane-only CD74, Hep-G2 cells.
For assay [30] the target is unchanged. The assay is described as follows: flow cytometry, membrane-only CD74, Hep-G2 cells; background (GAH-FITC only) in parentheses.
Assay [31] has the same target. As to the kind of experiment: flow cytometry, permeabilized Capan-1 cells; background in parentheses.
Assay [32] has the same target. The assay is described as follows: flow cytometry, permeabilized Hs746T cells.
Assay [33] shares this target. The assay is described as follows: flow cytometry, permeabilized Hep-G2 cells; background in parentheses.
The target is the same in assay [34]. The assay is described as follows: cell binding assay on antigen-positive cells.
Assay [35] has the same target. As to the kind of experiment: flow cytometry, permeabilized NCI-N87 cells.
For assay [36] the target is unchanged. The assay is described as follows: flow cytometry, membrane-only CD74, NCI-N87 cells; background (GAH-FITC only) in parentheses.
Assay [37] shares this target. As to the kind of experiment: flow cytometry, membrane-only CD74, A-375 cells; background (GAH-FITC only) in parentheses.
Assay [38] has the same target. As to the kind of experiment: flow cytometry, membrane-only CD74, NCI-N87 cells.
For assay [39] the target is unchanged. As to the kind of experiment: flow cytometry, permeabilized HuH-7 cells.
Assay [40] shares this target. The assay is described as follows: flow cytometry, permeabilized Hep-G2 cells.
Assay [41] shares this target. As to the kind of experiment: flow cytometry, membrane-only CD74, A-375 cells.
Assay [42] has as its target CD20 (human) (UniProt P11836). As to the kind of experiment: flow cytometry, unconjugated antibody + FITC goat anti-human IgG, Ramos cells; background in parentheses.
In assay [43] the target is CD20 (human) (UniProt P11836). As to the kind of experiment: flow cytometry, unconjugated antibody + FITC goat anti-human IgG, Raji cells; background in parentheses.
Assay [44] addresses CD20 (human) (UniProt P11836). The assay is described as follows: flow cytometry, unconjugated antibody + FITC goat anti-human IgG, Jeko-1 cells; background in parentheses.
In assay [45] the target is CD20 (human) (UniProt P11836). As to the kind of experiment: flow cytometry, unconjugated antibody + FITC goat anti-human IgG, REH cells; background in parentheses.
The target of assay [46] is CD20 (human) (UniProt P11836). The assay is described as follows: flow cytometry, unconjugated antibody + FITC goat anti-human IgG, Daudi cells; background in parentheses.
Assay [47] concerns the target CD20 (human) (UniProt P11836). The assay is described as follows: flow cytometry, unconjugated antibody + FITC goat anti-human IgG, RS4;11 cells; background in parentheses.
Assay [48] has as its target CD20 (human) (UniProt P11836). As to the kind of experiment: flow cytometry, unconjugated antibody + FITC goat anti-human IgG, 697 cells; background in parentheses.
In assay [49] the target is CD20 (human) (UniProt P11836). As to the kind of experiment: flow cytometry, unconjugated antibody + FITC goat anti-human IgG, MN-60 cells; background in parentheses.
Assay [50] addresses CD20 (human) (UniProt P11836). As to the kind of experiment: flow cytometry, unconjugated antibody + FITC goat anti-human IgG, WSU-FSCCL cells; background in parentheses.
Assay [51] has as its target CEACAM6 (human) (UniProt P40199). As to the kind of experiment: flow cytometry, surface, HuH-7 cells.
Assay [52] shares this target. The assay is described as follows: flow cytometry, Hep-G2 cells.
Assay [53] has the same target. The assay is described as follows: flow cytometry, surface, NCI-N87 cells.

Sequence of CD20 (human) (P11836 whole entry): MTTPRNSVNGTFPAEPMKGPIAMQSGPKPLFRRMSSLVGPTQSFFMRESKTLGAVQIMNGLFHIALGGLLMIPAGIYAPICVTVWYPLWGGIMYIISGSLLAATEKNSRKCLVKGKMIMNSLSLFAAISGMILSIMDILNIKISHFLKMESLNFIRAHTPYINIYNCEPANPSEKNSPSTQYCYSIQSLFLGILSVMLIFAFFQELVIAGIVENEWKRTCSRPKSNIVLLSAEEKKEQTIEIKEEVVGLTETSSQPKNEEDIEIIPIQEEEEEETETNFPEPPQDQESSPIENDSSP
Sequence of CEACAM6 (human) (P40199 35-320): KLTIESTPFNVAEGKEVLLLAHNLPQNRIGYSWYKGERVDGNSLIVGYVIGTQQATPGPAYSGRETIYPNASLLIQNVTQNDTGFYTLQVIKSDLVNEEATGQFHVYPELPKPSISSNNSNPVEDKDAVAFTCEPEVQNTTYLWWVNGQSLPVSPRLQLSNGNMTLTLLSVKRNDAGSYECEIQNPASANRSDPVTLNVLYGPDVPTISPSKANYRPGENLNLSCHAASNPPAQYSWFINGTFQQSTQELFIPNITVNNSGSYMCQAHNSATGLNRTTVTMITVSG
Sequence of human trophoblast cell-surface antigen (TROP-2) (human) (P09758 27-323): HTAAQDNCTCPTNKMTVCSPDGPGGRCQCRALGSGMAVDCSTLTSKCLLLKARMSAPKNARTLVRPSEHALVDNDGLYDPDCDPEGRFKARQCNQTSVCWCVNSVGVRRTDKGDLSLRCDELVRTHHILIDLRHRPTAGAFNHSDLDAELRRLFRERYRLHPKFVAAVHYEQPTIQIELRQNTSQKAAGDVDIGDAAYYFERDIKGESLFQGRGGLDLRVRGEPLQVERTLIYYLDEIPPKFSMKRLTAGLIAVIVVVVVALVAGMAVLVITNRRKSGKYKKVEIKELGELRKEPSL
Sequence of CD74 (invariant chain, Ii) (human) (P04233 whole entry, change not shown): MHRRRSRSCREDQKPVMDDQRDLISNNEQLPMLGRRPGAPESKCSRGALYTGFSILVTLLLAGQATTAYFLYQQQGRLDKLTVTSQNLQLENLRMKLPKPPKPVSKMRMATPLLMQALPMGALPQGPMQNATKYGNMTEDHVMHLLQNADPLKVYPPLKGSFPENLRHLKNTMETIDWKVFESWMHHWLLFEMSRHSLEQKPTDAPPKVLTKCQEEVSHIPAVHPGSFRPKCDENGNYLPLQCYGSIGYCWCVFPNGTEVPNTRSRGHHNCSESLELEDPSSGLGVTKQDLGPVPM

Take “epratuzumab (hLL2), humanized anti-CD22 IgG1 (antibody)”: the median fluorescence was found to be 40.8 in assay [1]; 45.9 in assay [2]; 11.2 in assay [3]; 22.9 in assay [4]; 145 in [5]; 23.3 in assay [6]. The median fluorescence is 16 in assay [7], 10.3 in assay [8] and 7.7 in assay [9].

Consider “hRS7-CL2-SN-38 (hRS7 IgG conjugated to SN-38 through the CL2 linker) (antibody)”, for which the equilibrium dissociation constant (Kd) (usually a measure of binding affinity in units of concentration) in assay [10] was 1.2 nM.

In assay [10], “hRS7-CL2A-SN-38 (hRS7 IgG conjugated to SN-38 through the CL2A linker) (antibody)” showed a Kd of 1.2 nM.

For the molecule “humanized RS7 IgG (hRS7), anti-TROP-2 (anti-EGP-1) humanized antibody”, the MFI (surface) in [11] was 237; in assay [12], 795.

As to “milatuzumab (hLL1), humanized anti-CD74 IgG1 (antibody)”, the MFI Ratio hLL1:bkgd (surface) in assay [13] came out at 19.6; in assay [16], 1.6; in assay [17], 1.8; in assay [21], 2.1; in assay [29] it was 1.5; in assay [38] it was 1.3. Also, the MFI Ratio hLL1:bkgd (surface) in assay [41] was 5.3. Further, the MFI (surface and cytoplasmic) in [14] was found to be 185; in assay [15], 220; in assay [23], 144; in assay [24] it was 143; in [25], 114; in assay [31] it was 248. The MFI (surface and cytoplasmic) in assay [33] turned out to be 156. The MFI (surface) amounted to 8 in assay [18]; 22 in assay [20]; 17 in assay [26]; 59 in [28]; 9 in assay [30]; 5 in [36]. Besides, the MFI (surface) in assay [37] turned out to be 16. For the same molecule, the MFI Ratio hLL1:bkgd (surface and cytoplasmic) in assay [19] came to 49.6; in assay [22], 28.6; in assay [27], 30.8; in assay [32], 28.8; in assay [35], 36.7; in assay [39], 28.5. Further, in assay [40], the MFI Ratio hLL1:bkgd (surface and cytoplasmic) came to 31.2. The Kd in [34] was found to be 0.77 nM.

Turning to milatuzumab-CL2A-SN-38 (antibody), the Kd in [34] came out at 0.59 nM.

With milatuzumab-CL2E-SN-38 (antibody), the Kd in assay [34] was 0.8 nM. This Kd and that of the molecule before are within 1.5-fold of each other.

Take “veltuzumab (hA20), humanized anti-CD20 IgG1 (antibody)”: the median fluorescence in [42] was 620; in [43] it was 422; in assay [44] it was 605; in assay [45], 12.3; in assay [46], 815; in assay [47], 3.7. The median fluorescence came out at 6.9 in assay [48], 21.5 in assay [49] and 97.4 in assay [50].

B1: hMN-15, humanized anti-CEACAM6 IgG1 (antibody, from a related filing, V domains shown)
VH: QVQLVESGGGVVQPGRSLRLSCSSSGFALTDYYMSWVRQAPGKGLEWLGFIANKANGHTTDYSPSVKGRFTISRDNSKNTLFLQMDSLRPEDTGVYFCARDMGIRWNFDVWGQGTPVTVSS
VL: DIQLTQSPSSLSASVGDRVTMTCSASSRVSYIHWYQQKPGKAPKRWIYGTSTLASGVPARFSGSGSGTDFTFTISSLQPEDIATYYCQQWSYNPPTFGQGTKVEIKR
As to B1, the values for the MFI (surface) in [51] and in assay [53] were 81 and 1120, respectively. Moreover, the MFI in assay [52] turned out to be 175.
